Literature values in PMC2933916.

Molecular target: S100B (UniProt P04271)

## S100B (from UniProt P04271)
  Kd: < 0.5 nM
